Laboratory results as given in patent US20190375855A1 (Memorial Sloan Kettering, published 2019).

Target: T1, Trp1 as expressed by B16 melanoma cells (UniProt P07147 25-537, limits assumed)
T1 construct: whole, on cells; also called Tyrosinase-related protein 1; TYRP1
Assay: flow cytometry on permeabilized B16 cells, detection with anti-mouse IgG PE
From the text: FIG. 2 depicts Trp1 expression profile. B16, B78H1, and B78H1 engineered to express Trp1 on the surface were stained with TA99, TA99 single chain variable region fused to an Fc domain, or isotype control. The cell lines were washed and stained with anti-mouse IgG PE and further analyzed by flow cytometry. B16 was permeabilized before staining since the level of Trp1 expression is suboptimal in the surface in vitro.
An scFv that specifically binds to a mouse Trp1 polypeptide and a human Trp1 polypeptide was generated from a murine monoclonal antibody TA99 that was generated from the TA99 antibody disclosed in International Patent Publication No. WO96/40249. This scFv was cloned into an eGFP cassette. The binding specificity of this scFv to the Trp1 polypeptide was evaluated using a soluble protein comprising this scFv and a Fc domain fused to the scFv. The binding specificity of the scFv-Fc fusion protein to B16 melanoma cells (expressing Trp1), a B16 variant B78H1 (not expressing Trp1), and B78H1-Trp1 (B78H1 engineered to express TRP1 on the surface) was evaluated by flow cytometry. […]

- binding result: binds
B1: soluble protein comprising the TA99-derived scFv and a Fc domain fused to the scFv (Fc fusion, not shown: a dimerising Fc or GST)
scFv: EVQLQQSGAELVRPGALVKLSCKTSGFNIKDYFLHWVRQRPDQGLEWIGWINPDNGNTVYDPKFQGTASLTADTSSNTVYLQLSGLTSEDTAVYFCTRRDYTYEKAALDYWGQGASVIVSSGGGGSGGGGSGGGGSAFQMSQSPASLSASVGETVTITCRASGNIYNYLAWYQQKQGKSPHLLVYDAKTLADGVPSRFSGSGSGTQYSLKISSLQTEDSGNYYCQHFWSLPFTFGSGTKLEIKAAA
notes: also called scFv-Fc fusion protein; TA99 single chain variable region fused to an Fc domain
